Measurements as given in patent EP4431529A1 (Sunshine Guojian Pharmaceutical (Shanghai) Co., Ltd., dated 2024).

Tests used:
IL-17A protein [1] = biological target: T1, IL-17A protein (human, UniProt Q16552 24-155); assay: SPR, Biacore 8K, antibody captured on Protein A, IL-17A as analyte
T1 construct: Embodiments 3 and 4 say only 'IL-17A'; Treated as one molecule; also called human IL-17A
T1 sequence (looked up): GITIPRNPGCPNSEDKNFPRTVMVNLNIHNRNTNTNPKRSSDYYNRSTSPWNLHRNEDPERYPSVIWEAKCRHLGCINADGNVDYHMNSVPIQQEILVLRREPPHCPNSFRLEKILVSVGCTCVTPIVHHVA

IL-17A protein [2] = biological target: T1, IL-17A protein; assay: ELISA, IL-17A coated on the plate
VEGF165 = biological target: T2, VEGF165 (UniProt P15692-4 27-191); assay: ELISA, VEGF coated on the plate
T2 construct: treated as one molecule; also called VEGF protein; VGEF
T2 sequence (P15692 other isoform, or with tags, fused parts or gaps limits assumed): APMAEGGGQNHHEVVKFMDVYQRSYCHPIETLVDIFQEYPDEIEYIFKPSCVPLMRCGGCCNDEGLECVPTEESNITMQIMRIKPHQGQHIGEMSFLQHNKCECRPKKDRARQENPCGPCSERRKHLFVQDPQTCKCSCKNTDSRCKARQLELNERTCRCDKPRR

IL-17A protein [3] = biological target: T1, IL-17A protein; assay: cell-based or functional assay

B1: anti-IL-17 monoclonal antibody 608 (antibody, human IgG1, kappa, V domains shown)
VH: EVQLVESGGGLVQPGGSLRLSCAASGFTFSSFDMSWGRQAPGKRLEWVAFMSSGGSTYYPDSVKGRFTISRDNSKNTLYLQMNSLRAEDTAVYYCARGERYGSYWGQGTLVTVSS
VL: DIQMTQSPSSLSASVGDRVTITCKASDHINNWLAWYQQKPGKAPKLLISGATSLETGVPSRFSGSGSGTDYTLTISSLQPEDFATYYCQQYWSTPFTFGSGTKLEIKR
notes: Humanized anti-human IL-17A monoclonal antibody from CN 201780033670.5; positive control
Kd (IL-17A protein [1]): 16.4 pM | koff (IL-17A protein [1]): 4e-05 s⁻¹ | kon (IL-17A protein [1]): 2.44e+06 M⁻¹ s⁻¹ | EC50 (IL-17A protein [2]): 52 pM | binding result (VEGF165): no binding (tested: 25 nM (highest concentration tested)) | IC50 of blocking IL-17A-induced IL-6 secretion from HeLa cells (IL-17A protein [3]): 877 pM
